Test results as given in patent US7166426.
“And” between values parts separate entries of the source, which are not always exact repeats. Equal entries are not always repeated.

Key:
[1] = molecular target: denatured NS3/4a (hepatitis C virus, HCV-1 (HCV1a)) (UniProt P26664); assay: ELISA, antigen coated on microtiter plate, average of the negative controls
[2] = molecular target: c200 antigen; assay: as above
[3] = molecular target: NS3/4a conformational epitope with Thr to Pro and Ser to Ile substitutions (hepatitis C virus, HCV-1 (HCV1a)) (UniProt P26664); assay: as above
[4] = molecular target: denatured NS3/4a (hepatitis C virus, HCV-1 (HCV1a)) (UniProt P26664); assay: ELISA, antigen coated on microtiter plate, negative control
[5] = molecular target: c200 antigen; assay: as above
[6] = molecular target: NS3/4a conformational epitope with Thr to Pro and Ser to Ile substitutions (hepatitis C virus, HCV-1 (HCV1a)) (UniProt P26664); assay: as above

## HCV 3.0 Controls, negative control
[1]
  OD (average of Neg. Cont.): 0.022 OD
[2]
  OD (average of Neg. Cont.): 0.007 OD
[3]
  OD (average of Neg. Cont.): 0.024 OD
[4]
  OD: 0.024 OD and 0.017 OD
[5]
  OD: 0.008 OD and 0.007 OD and 0.005 OD
[6]
  OD: 0.023 OD and 0.027 OD and 0.021 OD
